According to publication PMC3690481:

How the values were obtained:
Lys63-linked diUb = Lys63-linked diUb (UniProt P0CG48); experiment: fluorescence polarisation; FlAsH-tagged diUb fixed (10 μl of 100 nM plus 10 μl protein), OTULIN C129A variants serially diluted; 20 mM Tris pH 7.4, 100 mM NaCl, 5 mM β-mercaptoethanol, 0.1 mg/ml BSA; one-site binding model; triplicate
[1] = target: FlAsH-tagged Met1-diUb E16A^prox (UniProt P0CG48); experiment: fluorescence anisotropy

Kd (Lys63-linked diUb) [µM]	Kd [1] [µM]	Substance
12	–	OTULIN (1–352) C129A (from UniProt Q96BN8 1-352) (enzyme)
–	0.117	m1; m3 OTULIN:N341D; proximal Ub:E16A
